According to article PMC3949526, “The structure of an authentic spore photoproduct lesion in DNA suggests a basis for recognition”:

What was measured:
[1] = biological target: T1, N-terminal fragment of MMLV reverse transcriptase (fingers and palm domains) (Moloney murine leukemia virus, UniProt P03355 683-937); test: X-ray crystallography (1.72 A); host-guest complex; undamaged DNA; Crystallization: protein 2 mM in 50 mM MES pH 6.0, 0.3 M NaCl, 1 mM DTT; DNA 2.5 mM duplex in 10 mM HEPES pH 7.0, 10 mM MgCl2; crystallization buffer and temperature not given in the material; settings: protein: recombinant; tags: 6xHis tag removed with thrombin; chain copies: 2; blunt; self-complementary, 2 copies of one strand
[2] = biological target: T1, N-terminal fragment of MMLV reverse …; test: X-ray crystallography (2.14 A); host-guest complex; SP lesions in central 10 bp, free of protein contacts; Crystallization: protein 2 mM in 50 mM MES pH 6.0, 0.3 M NaCl, 1 mM DTT; DNA 2.5 mM duplex in 10 mM HEPES pH 7.0, 10 mM MgCl2; crystallization buffer and temperature not given in the material; settings: protein: recombinant; tags: 6xHis tag removed with thrombin; chain copies: 2; blunt; self-complementary, 2 copies of one strand

T1 sequence (P03355 683-937): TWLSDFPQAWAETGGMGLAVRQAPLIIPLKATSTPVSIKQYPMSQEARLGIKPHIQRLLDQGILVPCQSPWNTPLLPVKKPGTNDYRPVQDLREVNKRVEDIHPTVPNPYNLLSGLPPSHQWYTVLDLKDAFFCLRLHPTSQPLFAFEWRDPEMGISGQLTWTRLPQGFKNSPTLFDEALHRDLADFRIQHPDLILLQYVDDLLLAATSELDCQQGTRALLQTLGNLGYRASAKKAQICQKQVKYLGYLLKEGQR

Binder	binding result [1]	binding result [2]
non-SP DNA 16-mer (dsDNA) DNA 1: ATCCGTTATAACGGAT DNA 2: ATCCGTTATAACGGAT	binds	
SP DNA 16-mer (dsDNA, spore photoproduct (5-thyminyl-5,6-dihydrothymine) linking T6 and T7 in each strand) DNA 1: ATCCGTTATAACGGAT DNA 2: ATCCGTTATAACGGAT		binds
